Three molecules from patent US20040224408A1, “THAP proteins as nuclear receptors for chemokines and roles in transcriptional regulation, cell proliferation and cell differentiation” (published 2004) can be followed below.

The target of data set [1] is T1, THAP1 THAP domain (Homo sapiens, UniProt Q9NVV9 SEQ:1-90).
T1 sequence: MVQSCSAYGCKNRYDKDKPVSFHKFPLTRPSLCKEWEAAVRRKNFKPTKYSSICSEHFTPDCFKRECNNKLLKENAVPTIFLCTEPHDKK
Briefly: EMSA; 20 mM Tris-HCl pH 7.5, 100 mM KCl, poly(dI-dC), room temperature; abrogated by 1,10-phenanthroline, restored by Zn; self-competed by 50-250x unlabelled probe. The conditions noted are these: tags: C-terminal His6 (pET-21c); label: 32P. On the procedure:
Binding reactions were carried out for 10 minutes at room temperature in 20 μl binding buffer (20 mM Tris-HCl pH 7.5, 100 mM KCl, 0.1% NP-40, 100 μg/ml BSA, 2.5 mM DTT, 5% glycerol, 200 ng poly (dI-dC)). Electrophoresis was performed on 8% (29:1) polyacrylamide gels containing 5% glycerol. Gels were run in 0.25×TBE at 150V and 4° C., dried and exposed on a phosphoimager screen (Molecular Dynamics). Sequences of wild type and mutant THRE oligonucleotides used in EMSA experiments were as follow (mutations are indicated in bold): wild-type probe 3, 5′-[…]-3′ (SEQ ID NO: 313); mutant probe 3mut1, 5′-[…]-3′ (SEQ ID NO: 314); mutant probe 3mut3, 5′-[…]-3′ (SEQ ID NO: 319); mutant probe 3mut4, 5′-[…]-3′ (SEQ ID NO: 320); mutant probe 3mut14, 5′-[…]-3′ (SEQ ID NO: 321); mutant probe 3mut5, 5′-[…]-3′ (SEQ ID NO: 322).
For competition experiments, 50-, 150-, and 250-fold molar excess of unlabelled wild-type (THRE competitor, probe 3) or mutant (non-specific competitor, probe 3mut1) THRE oligonucleotides were added to the reaction mixture just before the addition of the probe.
Since the THAP domain is characterized by a C2-CH conserved motif that may function as a Zn-binding site, we then determined whether DNA-binding activity of the THAP domain is Zn-dependent. […]
In general terms: A gel shift assay detects complexes by their altered migration in electrophoresis.

The target in data set [2] is T2, THAP1-N3 deletion mutant (amino acids 1-192) (human, UniProt Q9NVV9 1-192).
T2 construct: Tested as a Gal4-BD or Gal4-AD fusion, as in vitro translated 35S-labelled protein and as an EGFP fusion
T2 sequence: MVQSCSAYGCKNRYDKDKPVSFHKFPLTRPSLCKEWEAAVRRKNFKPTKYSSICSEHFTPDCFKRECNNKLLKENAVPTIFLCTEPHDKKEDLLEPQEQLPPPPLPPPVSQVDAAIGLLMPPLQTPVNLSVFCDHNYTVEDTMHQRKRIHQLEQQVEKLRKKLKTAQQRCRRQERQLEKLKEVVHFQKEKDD
Briefly: yeast two-hybrid, pGBKT7-THAP1 mutant with pGADT7-Par4DD. The protocol:
(§1) Two-hybrid interaction between THAP1 mutants and Par4DD was tested by cotransformation of AH109 with pGBKT7-THAP1-C1, -C2, -C3, -N1, -N2 or -N3 and pGADT7-Par4DD and selection of transformants by His and Ade double auxotrophy according to manufacturer's instructions ([…] two-hybrid system 3, Clontech).

In data set [3] the target is T3, THAP1-N2 deletion mutant (amino acids 1-166) (human, UniProt Q9NVV9 1-166).
T3 construct: Tested as a Gal4-BD or Gal4-AD fusion, as in vitro translated 35S-labelled protein and as an EGFP fusion
T3 sequence: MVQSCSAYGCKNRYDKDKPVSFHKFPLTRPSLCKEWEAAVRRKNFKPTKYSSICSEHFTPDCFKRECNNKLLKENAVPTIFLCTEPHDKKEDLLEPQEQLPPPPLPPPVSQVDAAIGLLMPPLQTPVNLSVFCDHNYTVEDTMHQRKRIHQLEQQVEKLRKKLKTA
The description is as above. The protocol:
as §1

Data set [4] addresses T4, THAP1-C1 deletion mutant (amino acids 90-213) (human, UniProt Q9NVV9 90-213).
T4 construct: Tested as a Gal4-BD or Gal4-AD fusion, as in vitro translated 35S-labelled protein and as an EGFP fusion; also called THAP1ΔTHAP; THAP1?THAP
T4 sequence: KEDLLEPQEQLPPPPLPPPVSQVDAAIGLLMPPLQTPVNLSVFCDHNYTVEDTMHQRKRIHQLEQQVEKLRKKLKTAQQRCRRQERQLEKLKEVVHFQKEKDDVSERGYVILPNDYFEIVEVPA
The data set is described as above. The protocol: as §1

The target of data set [5] is T5, THAP1-N1 deletion mutant (amino acids 1-90) (human, UniProt Q9NVV9 1-90).
T5 construct: Tested as a Gal4-BD or Gal4-AD fusion, as in vitro translated 35S-labelled protein and as an EGFP fusion
T5 sequence: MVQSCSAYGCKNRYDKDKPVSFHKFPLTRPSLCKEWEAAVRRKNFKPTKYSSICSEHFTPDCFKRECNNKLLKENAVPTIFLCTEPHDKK
Described as above. The protocol:
as §1

For data set [6], the target named is T6, THAP1-C3 deletion mutant (amino acids 143-213) (human, UniProt Q9NVV9 143-213).
T6 construct: Tested as a Gal4-BD or Gal4-AD fusion, as in vitro translated 35S-labelled protein and as an EGFP fusion
T6 sequence: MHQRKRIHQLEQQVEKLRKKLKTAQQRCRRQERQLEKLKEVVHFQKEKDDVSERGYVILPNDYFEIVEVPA
The data set is described as above. The protocol: as §1

For data set [7], the target named is T7, THAP1-C2 deletion mutant (amino acids 120-213) (human, UniProt Q9NVV9 120-213).
T7 construct: Tested as a Gal4-BD or Gal4-AD fusion, as in vitro translated 35S-labelled protein and as an EGFP fusion
T7 sequence: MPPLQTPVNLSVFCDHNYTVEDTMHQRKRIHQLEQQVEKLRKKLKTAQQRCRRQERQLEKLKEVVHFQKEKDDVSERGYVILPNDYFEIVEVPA
The description is as above. The protocol:
as §1

Data set [8] deals with T8, human THAP1 (THanatos (death)-Associated Protein-1), full length (human, UniProt Q9NVV9 1-213).
T8 construct: also called hTHAP1; FLJ10477
T8 sequence: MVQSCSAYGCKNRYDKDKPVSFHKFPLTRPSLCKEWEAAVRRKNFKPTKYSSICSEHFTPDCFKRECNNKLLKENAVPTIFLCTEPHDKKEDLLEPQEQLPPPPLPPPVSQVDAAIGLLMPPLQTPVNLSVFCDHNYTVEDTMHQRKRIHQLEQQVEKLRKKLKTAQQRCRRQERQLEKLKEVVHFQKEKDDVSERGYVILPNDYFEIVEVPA
Briefly: yeast two-hybrid, both orientations (His/Ade selection). From the text: We then examined whether the leucine zipper/death domain at the C-terminus of Par4, previously shown to be involved in Par4 binding to WT-1 and aPKC, was required for the interaction between THAP1 and Par4. Two Par4 mutants were constructed for that purpose, Par4A and Par4DD. Par4A lacks the leucine zipper/death domain while Par4DD contains this domain. pGBKT7-Par4A(amino acids 1-276) and pGADT7-Par4A. were constructed by sub-cloning a EcoRI-BglII fragment from pGADT7-Par4 into the EcoRI and BamHI sites of pGBKT7 and pGADT7. Par4DD (amino acids 250-342) was amplified by PCR, using pGBKT7-Par4 as template, with primers Par4.4 (5′-[…]-3′) (SEQ ID NO: 193) and Par4.5, and cloned into the EcoRI and BamHI sites of pGBKT7 and pGADT7 to obtain pGBKT7-Par4DD and pGADT7-Par4DD. Two-hybrid interaction between THAP1 and Par4 mutants was tested by cotransformation of AH109 with pGBKT7-THAP1 and pGADT7-Par4A or pGADT7-Par4DD and selection of transformants by His and Ade double auxotrophy according to manufacturer's instructions ([…] two-hybrid system 3, Clontech). […] Similar results were obtained when two-hybrid experiments were performed in the opposite orientation using Par4 or Par4 mutants (Par4A and Par4DD) as baits instead of THAP1 (FIG. 3A).

In data set [9] the target is T9, THAP1ΔQRCRR mutant (deletion of residues 168-172) (human, UniProt Q9NVV9 1-213).
T9 construct: Tested as a Gal4-BD fusion (pGBKT7), as in vitro translated protein and as an EGFP fusion; also called THAP1?QRCRR; THAP1?(QRCRR)
T9 sequence: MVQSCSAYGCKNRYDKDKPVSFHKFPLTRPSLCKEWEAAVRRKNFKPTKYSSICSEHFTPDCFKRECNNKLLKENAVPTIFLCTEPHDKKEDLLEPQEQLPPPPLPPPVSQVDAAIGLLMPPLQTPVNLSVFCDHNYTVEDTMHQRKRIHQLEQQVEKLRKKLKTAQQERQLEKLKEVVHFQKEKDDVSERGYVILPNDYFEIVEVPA
Briefly: yeast two-hybrid. On the procedure:
as §1
for mutant THAP1ΔQRCRR. The resulting PCR fragments were digested with EcoRI and BamHI, and cloned in frame downstream of the Gal4 Binding Domain (Gal4-BD) in pGBKT7 two-hybrid vector (Clontech) to generate pGBKT7-THAP1-RR/AA and −Δ(QRCRR), or downstream of the Enhanced Green Fluorescent Protein (EGFP) ORF in pEGFP.C2 vector (Clontech) to generate pEGFP.C2-THAP1-RR/AA and −Δ(QRCRR). THAP1 RR/AA and THAP1ΔQRCRR THAP1 mutants were then tested in the three THAP1/Par4 interaction assays (two-hybrid assay, in vitro THAP1/Par4 interaction assay, in vivo THAP1/Par4 interaction assay) as described above for the THAP1-C1, -C2, -C3, -N1, -N2 or -N3 mutants.

The target in data set [10] is T9, THAP1ΔQRCRR mutant (deletion of …). Briefly: in vitro THAP1/Par4 interaction assay (GST pull-down with GST-Par4DD). The protocol: (§2) THAP1 mutants were also tested in the in vitro THAP1/Par4 interaction assay. In vitro-translated THAP1 mutants were generated with the TNT-coupled reticulocyte lysate system (Promega, Madison, Wis., USA) using pGBKT7-THAP1-C1, -C2, -C3, -N1, -N2 or -N3 vector as template. 25 μl of each ³⁵S-labelled THAP1 mutant was incubated with immobilized GST or GST-Par4 protein overnight at 4° C., in the following binding buffer: 10 mM NaPO4 pH 8.0, 140 mM NaCl, 3 mM MgCl2, 1 mM dithiothreitol (DTT), 0.05% NP40, and 0.2 mM phenylmethyl sulphonyl fluoride (PMSF), 1 mM Na Vanadate, 50 mM β Glycerophosphate, 25 μg/ml chimotrypsine, 5 μg/ml aprotinin, 10 μg/ml Leupeptin. Beads were then washed 5 times in 1 ml binding buffer. Bound proteins were eluted with 2×Laemmli SDS-PAGE sample buffer, fractionated by 10% SDS-PAGE and visualized by fluorography using Amplify (Amersham Pharmacia Biotech). As expected, THAP1-C1, -C2, -C3, -and -N3 interacted with GST/Par4DD (FIG. 4B).
for mutant THAP1ΔQRCRR. The resulting PCR fragments were digested with EcoRI and BamHI, and cloned in frame downstream of the Gal4 Binding Domain (Gal4-BD) in pGBKT7 two-hybrid vector (Clontech) to generate pGBKT7-THAP1-RR/AA and −Δ(QRCRR), or downstream of the Enhanced Green Fluorescent Protein (EGFP) ORF in pEGFP.C2 vector (Clontech) to generate pEGFP.C2-THAP1-RR/AA and −Δ(QRCRR). […]

Data set [11] addresses T3, THAP1-N2 deletion mutant (amino acids …). Briefly: GST pull-down, immobilized GST-Par4DD, in vitro translated 35S-labelled mutant. The protocol: as §2
Data set [12] has as its target T5, THAP1-N1 deletion mutant (amino acids …). The description is as above. The protocol:
as §2

B1: wild-type THRE probe 3 (dsDNA)
DNA 1: AGCAAGTAAGGGCAAACTACTTCAT
DNA 2: ATGAAGTAGTTTGCCCTTACTTGCT
Consider B1, for which, in [1], the binding result is recorded as “binds”.

B2: Par4 leucine zipper/death domain (Par4DD, amino acids 250-342) (other)
chain: GFPRYNRDANVSGTLVSSSTLEKKIEDLEKEVVTERQENLRLVRLMQDKEEMIGKLKEEIDLLNRDLDDIEDENEQLKQENKTLLKVVGQLTR
notes: also called myc-Par4DD; mycPar4DD
Consider B2, for which the binding result was “binds” in data set [2]; “no binding” in data set [3]; “binds” in [4]; “no binding” in data set [5]; “binds” in data set [6]; “binds” in [7]. For the same molecule, the binding result in [8] was “binds”; in data set [9] it was “no binding”.

B3: GST-Par4DD fusion protein (pGEX-2T-Par4DD, Par4 amino acids 250-342) (other)
chain: GFPRYNRDANVSGTLVSSSTLEKKIEDLEKEVVTERQENLRLVRLMQDKEEMIGKLKEEIDLLNRDLDDIEDENEQLKQENKTLLKVVGQLTR
notes: Expressed in E. coli DH5alpha and immobilized on glutathione sepharose; not shown: Glutathione S-transferase (GST) encoded by the pGEX-2T prokaryotic expression vector (Amersham Pharmacia Biotech); N-ter
As for B3, the binding result in data set [10], in data set [11] and in data set [12] was “no binding” throughout.
